Laboratory results taken from article PMC3817844 (Angewandte Chemie (International ed. in English), 2013).

Molecular target: AlleyCat; AlleyCat7 (Gallus gallus, UniProt P62149, A129T/A89Q/F93E/H108I/I86L/L113R/M125L/M145R)
Assay: inhibition of Kemp elimination
Type: biochemical
Settings: not given

| Compound | Ki |
| --- | --- |
| O=[N+]([O-])c1ccc2[nH]nnc2c1 [5-NBT, 5-nitro-benzotriazole] | 18 µM |

Molecular target: Glu92 (UniProt position 93, EAFRVEDKDGN)
Assay: kinetics
Settings: Ca2+-bound (active) protein; the protein is inactive without Ca2+

| Compound | pKa |
| --- | --- |
| CaM F92E round 4 variant (F92E/M144R/H107I/L112R/I85L) (Gallus gallus; F92E;M144R;H107I;L112R;I85L) | 6.93±0.03 |
| CaM F92E 5R (round 5 variant), affinity tag removed (Gallus gallus; F92E;M144R;H107I;L112R;I85L;A128T) | 6.47±0.03 |
| CaM F92E round 6 variant (Gallus gallus; F92E;M144R;H107I;L112R;I85L;A128T;M124L) | 6.67±0.01 |
| CaM F92E round 2 variant (F92E/M144R/H107I), tag removed (Gallus gallus; F92E;M144R;H107I) | 6.73±0.03 |
| CaM F92E round 3 variant (F92E/M144R/H107I/L112R) (Gallus gallus; F92E;M144R;H107I;L112R) | 6.70±0.03 |
| CaM F92E round 1 variant (F92E/M144R) (Gallus gallus; F92E;M144R) | 7.21±0.06 |
| CaM F92E (full-length calmodulin F92E) (Gallus gallus; F92E) | 6.98±0.05 |
| CaM F92E 5R (round 5 variant), with affinity tag (Gallus gallus; F92E;M144R;H107I;L112R;I85L;A128T) | 6.60±0.02 |

Same assay, conditions: Ca2+-bound (active) protein; the protein is inactive without Ca2+; cited from earlier work

| Compound | pKa |
| --- | --- |
| AlleyCat (calmodulin C-terminal domain F92E) (Gallus gallus; F92E) | 6.9±0.1 |

Molecular target: Glu92 (UniProt position 93, EQFRVEDKDGN)
Assay: kinetics
Settings: Ca2+-bound (active) protein; the protein is inactive without Ca2+

| Compound | pKa |
| --- | --- |
| CaM F92E round 7 variant, tag removed (Gallus gallus; F92E;M144R;H107I;L112R;I85L;A128T;M124L;A88Q) | 6.43±0.02 |
| AlleyCat7 (calmodulin C-terminal domain with round 7 mutations) (Gallus gallus; F92E;M144R;H107I;L112R;I85L;A128T;M124L;A88Q) | 6.39±0.02 |
